Measurements reported in the domain aggregation screens of Martell et al. (2025).

Experiment: soluble fraction after stress (log2 fold change); higher = more stays soluble; pooled small domains, quantitative proteomics
Conditions: stress: 75 degC
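Further: 20 min heating vs room temperature control held 20 min.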

Sequence | soluble fraction (log2)
HMGVDMGPAKYVGQKALTATEMRPAGKIQIGQTVFDAVSVGPFIGARKAVKVIKYENAQLYVEPE | -0.415
HMGVEVEVPNVKGKLVADAEYELGLAQLTPVRTDSAYNRNLPPGTVLEQLPASGSHVKEGREIYLTINST | 0.284
HMGVGERIKARRKEIGLSAEQVAKELGVSPATVYRYESNDIMNMRIDKLEPIAKALHTTPAYLMGWE | -0.0856
HMGVGVKSTEVDYQRTSSGSDIPTDDAAWTKTIPAVKVNTFLWTRTKINYTDGTSAIFYSVGY | -3.05
HMGVGVPVTLLLEKLGEDTLSAQQIMERLGLKSRASFRKVYLVPALEQKLIEMEFPDKPNSSKQRYRR | -0.859
HMGVISRVITFWQNGFTVDDGPLRAFDDPANMAFMESIGRGEAPAELAPKTRTQRVNINLVQRHEPYSAPK | -0.147
HMGVITVRPPIVVRDFAIALNLKPFQVIGNLMELNKVVSVSSVIEEADARKVAERHGYTLEIRH | -1.67
HMGVMNEYEELRDRYLTGQIWKIGDLVEAKGIEGKIIQRGTNYITFNDSQGKVHKAWLHEIKV | -0.00315
HMGVNNDIIKHRKLEFMIEMLPDTFTRKEANEIGEGLGISLATLTRYLSSDAFERTGHGRYRKKD | -1.35
HMGVPTEQEIGKRILAWRKLRGMTLQQLADKAGVGLTTIHNLETGLWYAKMPTYLYIAEALGVSLDALIYG | -1.76
HMGVPVTAPMPGKVLKVTVSVGAAVKNGDLVLVLEAMKMENEIFATANGVVKEIRSREGDTVNSGDVMMVI | -2.19
HMGVRPAALGFQKVRIEPQVGTFREASGDVITPRGLIHAEWKRDEENALHLHYTLPDGVAYA | -0.0752
HMGVSDDMARGVVRARQFLSDFAAVPLDRMTPAEAVARARQLKSELETDAKHSPWLLDVLSNA | -0.116
HMGVSEIGSPAWMESKLVTLASYEGSLDGLRTLWGGVAQHRARIPVESWDRLFAAKEEGKARLVKLGRT | -1.25
HMGVSLREVPVAEHGDWIGRPIKELGIPAEVLIVLVRRADGTTVVPKGGTVLQQGDMLVVNEWEE | -1.16
HMGVTDSSYNVLRRQILEMLSVQQRTPADLARLIEADKEEIAAVIRFLLDKGEIQMEDGMLQTK | -0.821
HMGVVEEVAADFEGRAVVGKVDVDEQTELARRFGIMSIPTLVVMKGGKVVEQAVGARGKADIAAMLERH | 0.183
HMGYINLNVKVSPEWRDFWRSAYASVVAGYHQNKEHWNTIILDGSIPDKDIKRMIAESYDLVSD | -0.561

Sequence | soluble fraction (log2)
HMGYLNDRQRLIKDFITENQPLKVSDLVKQFPNIGLSTLKKDLQYLRGEQVLTMIGKGKGSVYVLNKK | -0.975
HMGYNDQEVKSNLITLLSTSKTGLSGVEISAQLGINRVTMTKFLNVFAAEGIIKQKNIGNLNLWLVEEGTE | -3.44
HMGYTTSFVVQLKNAVSISFDEIDQNLRKLPGVEDVVIVEEAAMAYLKVDRQHFREEQLAHFEFVRQ | -1.99
HMGYVQLTAREKEVLQGLVDGASYKMIAAKLDIRFGTVHTHVKNIYEKLHVNSASEAVVKAIRQRL | -2.26
HMHADIAATVVATMRQLGVLGLPRNYEIFYEALSGTNRELSLAVVSLSNRPTQDDLDRIGRRFFA | -1.33
HMHAEEIAREAKEALERGEEFHFAGITVRSEEALEFLEEWLRKFF | -1.02
HMHALSVKFSDEAAKTLPYDILSALRDVLALDPRPGYSRDENKIYRFEYADYNISFSVKDKTLTVLSAEK | -2.15
HMHAPRIEVVQIDPEKIGALIGPGGKNIRRITEVTGANLDIDEDNSGKIRVYASDSEAMNRALQEIDLVT | 0.308
HMHDHKTRLQELAAQRFGSAPSYLLTADGPAHDRRFHASVEVGGRSFGPGTGKSKKRAEQVAAHIAWDALS | 0.238
HMHDIPDITDLRPLRHTLGLTLAHAAQQLNTTTATISRLERGQHRNDHLATTYRTWLHTHPT | -0.291
HMHDLSQQIVRYLIQQGGSSSLTDKSDPQEIYRTFKVSKKKYKQALGNLYKSKTIVITSGKIELVD | -3.03
HMHDYNTIVGVIEMRDKNIPLTSIRQRYGIGYSGIDLILTRYKDSGLTLKEFLALDPSQAEELIYPPK | -0.961
HMHEHWDGSGFPKHLRGANIPLGARVIAVADTYDSITSSRAYRAGSTHEAAEREMRRVSGTQLDPE | 0.0624
HMHEIVDTVLQVKQSVEADPLIAPALKNKEIVFQLNAKGVFQFKNAVIQVASALGISKNTVYMHLRNNK | -3.04
HMHETMGQIIKRLRKERGLTQESLAERLGVTFQAVSKWETDAGMPDVSQIVPLANAFGVRTDVLFGLEGRD | -0.744
HMHEYSRIYQQQWWDNATGADAYHVIHSARSRAAQDPEAARALEYLEEQFRIRYGVRTEDFLGYLHD | -1.2
HMHFENEETFVLPLVREGFSEQQQLEMVDRLLFDANTDNPRWIIDWMASELPSTQRELLLDLEKRLAEVRS | -0.0441
